Reference: patent US20090208454A1 (AMBRX, published 2009)

Molecular target: T1, IFNAR2 extracellular domain (UniProt P48551 27-243, limits assumed)
T1 construct: extracellular domain; It was immobilized on a CM5 Biacore chip by lysine-specific coupling; also called IFNAR2ECD; IFNAR ECD
T1 sequence (looked up): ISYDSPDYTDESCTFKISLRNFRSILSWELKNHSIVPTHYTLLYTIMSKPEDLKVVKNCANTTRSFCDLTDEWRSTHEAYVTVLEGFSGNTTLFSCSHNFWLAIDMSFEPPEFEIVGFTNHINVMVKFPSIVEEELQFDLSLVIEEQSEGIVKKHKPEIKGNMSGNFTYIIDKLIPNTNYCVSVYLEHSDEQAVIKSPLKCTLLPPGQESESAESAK
Experiment: Biacore SPR, IFNAR2 ECD immobilized on CM5 chip, IFN injected, 1:1 model, average Kd
Procedure: The refolding reaction was then concentrated to 25 ml using an Amicon stirring cell, and dialyzed overnight against 20 mM Tris, pH 8, 20 mM NaCl, 10% glycerol. Monomeric refolded IFNAR ECD was purified on HP Q Sepharose using the AKTA FPLC system (Amersham). Purified IFNAR2ECD was immobilized on CM5 Biacore chip using a lysine-specific coupling procedure recommended by the manufacturer. About 200 RUs of functional protein were immobilized. Various concentrations of IFN beta variants in HBS-EP buffer (Biacore) were injected at a flow rate of 50 mcl/minute over the flowcell containing immobilized IFNAR2, and a control flowcell containing immobilized bovine serum albumin. Sensograms generated were fit to the 1:1 interaction model to calculate kₒₙ, koff and Kd values using BiaEvaluation software (Biacore).

Kd: 0.8 nM
B1: (C17S)-IFNβ (ligand)
chain: MSYNLLGFLQRSSNFQSQKLLWQLNGRLEYCLKDRMNFDIPEEIKQLQQFQKEDAALTIYEMLQNIFAIFRQDSSSTGWNETIVENLLANVYHQINHLKTVLEEKLEKEDFTRGKLMSSLHLKRYYGRILHYLKAKEYSHCAWTIVRVEILRNFYFINRLTGYLRN
notes: also called IFN beta with C17S substitution; (C17S)-IFN beta
